Laboratory results taken from the RNAGym collection of RNA variant scans (doi:10.7554/elife.80360).

B1: CPEB3 Ribozyme (parent)
chain: GGGGGCCACAGCAGAAGCGUUCACGUCGCGGCCCCUGUCAGAUUCUGGUGAAUCUGCGAAUUCUGCUGU

Variants of: B1
Experiment: self-cleavage, relative activity (ratio to wild type); higher = more cleavage; co-transcriptional

Variant | self-cleavage
C45U U67A | 1.01
C45U U67G | 1.02
U46A U53C | 0.971
U46A U53A | 0.989
U46A U53G | 0.931
G47A A52C | 0.993
G47A A52U | 1.01
U46C U61C | 0.788
U46C U61G | 0.856
U46G G56A | 0.941
U46C G47U | 1.02
U46C A59C | 0.744
U46C A51C | 0.99
C45G U62A | 0.939
C45U U46C | 0.975
C45U U46A | 0.999
C45U U46G | 0.952
C45G C54A | 0.579
C45U A51G | 1.01
C45U A59C | 0.72
U46A U69G | 1.03
U46A G56U | 0.941
U46A G56C | 0.858
U46G G48A | 1.01

Variant | self-cleavage
U46G G48C | 0.994
U46G G48U | 1.01
U46A U49G | 0.922
U46A U49C | 0.666
C45G C63G | 0.798
C45G C63A | 0.732
C45A G58U | 0.988
U46A G65C | 0.601
U46A G65A | 0.954
G47A A59C | 0.769
G47A A59G | 0.988
C45A G48A | 1.02
C45A G50C | 0.931
C45A G50U | 1.04
U46G G65A | 0.928
U46G G65U | 0.913
U46G G50C | 0.941
C45G G65C | 0.62
U46C C54U | 0.975
U46C U49G | 1.01
C45A U61C | 0.697
C45A U55C | 0.516
C45A U53C | 0.804
C45A U53G | 0.863

Variant | self-cleavage
U46A A52G | 1.03
U46A A52U | 0.981
U46A U67A | 0.972
U46C G58C | 0.976
U46C G58U | 0.933
U46A U62A | 0.937
C45U G50U | 0.991
U46G C54U | 0.992
U46G C54A | 0.845
C45U G68A | 1.02
C45G G47U | 1.04
C45G G47C | 1
C45A A52G | 0.97
C45A A52C | 0.908
C45U G47C | 0.998
U46A U61A | 0.982
C45U C63G | 0.816
C45U C63U | 1
U46A G47C | 1.04
U46C G50U | 0.984
U46G A59C | 0.828
C45A C63G | 0.813
C45A C63U | 1.02
C45G G68U | 0.979

Variant | self-cleavage
C45G U53A | 0.921
C45U U61G | 0.897
G47A G48U | 1.03
U46C G56A | 0.933
U46C G56C | 0.785
C45U U64C | 0.905
C45U U64A | 0.88
U46C U53C | 0.878
U46C U53A | 0.933
G47A C57G | 0.303
U46C C57G | 0.361
U46C C57U | 0.279
U46G U69A | 1.01
U46G U69G | 1.04
C45G G56C | 0.469
C45G G56U | 0.722
U46C A52U | 0.974
U46A A51G | 0.946
G47A G50C | 1
G47A G50A | 0.959
U46C G68U | 1.02
G47A G56C | 0.918
C45A G65A | 0.814
G47A C66A | 0.916

Variant | self-cleavage
G47A G58U | 0.995
C45G U64A | 0.908
C45U G56A | 0.943
C45G C66U | 0.961
C45G C66A | 0.767
C45U U62C | 0.895
C45U U62G | 0.847
U46C G65U | 0.629
C45U G58A | 0.972
C45U G58C | 1.01
C45U G58U | 1.01
C45U U53G | 0.9
C45U U53A | 0.936
C45G U49A | 0.987
C45G A52G | 0.989
C45G A52U | 0.998
C45A C66U | 0.919
C45A C66A | 0.744
C45A U49G | 1.01
C45A U49A | 0.997
C45U U49C | 0.986
C45U U49G | 1.01
U46G U49G | 0.972
C45A A59G | 0.971

Variant | self-cleavage
G47A C63U | 1.02
G47A C63G | 0.922
U46C | 0.986
U46G | 0.994
U46A | 1
U46G G58A | 0.957
U46G G58C | 0.936
C45A G56A | 0.848
C45U U69G | 1.05
U46A U55G | 0.916
U46A A59U | 0.842
C45U C57U | 0.317
G47A A51C | 0.983
C45G U67G | 1.01
C45U G65A | 0.929
C45A C54A | 0.603
U46A A60U | 0.556
U46A C57A | 0.434
U46A U64C | 0.98
U46G G68A | 1.01
C45A A60U | 0.424
C45A A60G | 0.862
C45A A60C | 0.476
U46G C63G | 0.825

Variant | self-cleavage
G47A A60C | 0.397
G47A A60G | 0.944
C45G U69G | 1.05
C45A C57A | 0.359
C45A C57U | 0.374
G47A C54U | 0.972
C45U C66U | 0.984
U46A C54U | 0.973
C45A G47U | 0.986
C45A G47A | 0.999
C45A G47C | 0.995
U46G A52C | 0.942
U46G A52G | 0.992
U46A G50U | 0.977
U46G U67C | 0.979
U46A G68U | 0.988
U46C C66U | 0.959
U46C A60G | 0.88
U46A C63G | 0.838
U46A C63A | 0.908
C45U C54U | 1.01
C45U C54G | 0.785
C45G G50U | 0.961
